Reference: the supplement of paper PMC10065799, “High-throughput profiling of sequence recognition by tyrosine kinases and SH2 domains using bacterial peptide display” (eLife, 2023)

Key:
Grb2 SH2 = Grb2 SH2 (UniProt P62993); assay: SH2 binding enrichment of the phosphorylated peptide, bacterial display (enrichment ratio); higher = better substrate or ligand; peptides without Tyr show the background
c-Src SH2 = assay: as above
SHP2-C SH2 = assay: as above
c-Src = assay: phosphorylation enrichment, bacterial display (enrichment ratio); higher = better substrate or ligand; peptides without Tyr show the background
AncSZ = assay: as above
EPHB1 = EPHB1 (UniProt P54762); assay: as above
Fes = Fes (UniProt P07332); assay: as above
Fyn = Fyn (UniProt P06241); assay: as above
Jak2 = Jak2 (UniProt O60674); assay: as above
Hck = Hck (UniProt P08631); assay: as above
EPHB2 = EPHB2 (UniProt P29323); assay: as above
FGFR3 = FGFR3 (UniProt P22607); assay: as above
c-Abl (mouse) = assay: as above
Fer (mouse) = assay: as above
FGFR1 = FGFR1 (UniProt P11362); assay: as above
MERTK = MERTK (UniProt Q12866); assay: as above
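For SH2 binding enrichment of the phosphorylated peptide, bacterial display in this document: peptide library displayed on the E. coli surface as eCPX fusions, selected cells deep-sequenced, score is each peptide's frequency after selection divided by its frequency in the input.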
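For phosphorylation enrichment, bacterial display in this document: 11-residue human phosphosite peptides and single-mutation variants displayed on the E. coli surface, counted by deep sequencing, each peptide's frequency after selection divided by its frequency in the unselected input library; frequency after pTyr selection over input frequency; kinase dosed for 20-30% of maximal phosphorylation in three min.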

Chain of FGFR3 (P22607 whole entry, looked up): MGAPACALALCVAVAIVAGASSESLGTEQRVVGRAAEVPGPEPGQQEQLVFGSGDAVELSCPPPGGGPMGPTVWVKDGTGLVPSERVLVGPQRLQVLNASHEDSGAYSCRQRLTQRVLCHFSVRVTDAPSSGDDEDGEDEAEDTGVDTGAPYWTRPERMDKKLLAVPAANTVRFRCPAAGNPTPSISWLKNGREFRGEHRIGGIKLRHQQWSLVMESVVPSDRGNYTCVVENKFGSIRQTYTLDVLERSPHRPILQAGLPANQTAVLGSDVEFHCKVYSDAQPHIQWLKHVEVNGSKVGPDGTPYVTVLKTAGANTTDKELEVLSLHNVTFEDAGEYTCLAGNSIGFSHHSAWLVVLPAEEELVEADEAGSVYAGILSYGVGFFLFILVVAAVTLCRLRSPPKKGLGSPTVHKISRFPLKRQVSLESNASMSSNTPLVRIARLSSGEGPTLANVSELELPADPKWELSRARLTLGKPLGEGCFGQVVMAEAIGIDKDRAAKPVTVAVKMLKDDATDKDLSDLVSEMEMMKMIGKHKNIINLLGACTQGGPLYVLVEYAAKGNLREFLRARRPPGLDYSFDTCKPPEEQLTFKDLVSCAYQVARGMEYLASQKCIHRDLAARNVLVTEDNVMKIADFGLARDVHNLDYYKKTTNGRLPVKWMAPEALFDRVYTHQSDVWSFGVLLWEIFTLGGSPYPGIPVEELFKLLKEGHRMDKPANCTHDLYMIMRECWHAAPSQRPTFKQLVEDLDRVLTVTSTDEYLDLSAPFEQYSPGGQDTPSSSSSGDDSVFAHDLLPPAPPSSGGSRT
Chain of Grb2 SH2 (P62993 whole entry, looked up): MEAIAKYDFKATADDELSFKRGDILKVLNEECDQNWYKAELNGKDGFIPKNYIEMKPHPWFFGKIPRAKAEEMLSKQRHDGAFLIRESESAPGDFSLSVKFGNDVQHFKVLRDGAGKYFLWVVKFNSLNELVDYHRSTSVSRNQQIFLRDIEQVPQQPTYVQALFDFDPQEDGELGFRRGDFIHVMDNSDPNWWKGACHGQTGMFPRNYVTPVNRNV
Chain of EPHB2 (P29323 whole entry, looked up): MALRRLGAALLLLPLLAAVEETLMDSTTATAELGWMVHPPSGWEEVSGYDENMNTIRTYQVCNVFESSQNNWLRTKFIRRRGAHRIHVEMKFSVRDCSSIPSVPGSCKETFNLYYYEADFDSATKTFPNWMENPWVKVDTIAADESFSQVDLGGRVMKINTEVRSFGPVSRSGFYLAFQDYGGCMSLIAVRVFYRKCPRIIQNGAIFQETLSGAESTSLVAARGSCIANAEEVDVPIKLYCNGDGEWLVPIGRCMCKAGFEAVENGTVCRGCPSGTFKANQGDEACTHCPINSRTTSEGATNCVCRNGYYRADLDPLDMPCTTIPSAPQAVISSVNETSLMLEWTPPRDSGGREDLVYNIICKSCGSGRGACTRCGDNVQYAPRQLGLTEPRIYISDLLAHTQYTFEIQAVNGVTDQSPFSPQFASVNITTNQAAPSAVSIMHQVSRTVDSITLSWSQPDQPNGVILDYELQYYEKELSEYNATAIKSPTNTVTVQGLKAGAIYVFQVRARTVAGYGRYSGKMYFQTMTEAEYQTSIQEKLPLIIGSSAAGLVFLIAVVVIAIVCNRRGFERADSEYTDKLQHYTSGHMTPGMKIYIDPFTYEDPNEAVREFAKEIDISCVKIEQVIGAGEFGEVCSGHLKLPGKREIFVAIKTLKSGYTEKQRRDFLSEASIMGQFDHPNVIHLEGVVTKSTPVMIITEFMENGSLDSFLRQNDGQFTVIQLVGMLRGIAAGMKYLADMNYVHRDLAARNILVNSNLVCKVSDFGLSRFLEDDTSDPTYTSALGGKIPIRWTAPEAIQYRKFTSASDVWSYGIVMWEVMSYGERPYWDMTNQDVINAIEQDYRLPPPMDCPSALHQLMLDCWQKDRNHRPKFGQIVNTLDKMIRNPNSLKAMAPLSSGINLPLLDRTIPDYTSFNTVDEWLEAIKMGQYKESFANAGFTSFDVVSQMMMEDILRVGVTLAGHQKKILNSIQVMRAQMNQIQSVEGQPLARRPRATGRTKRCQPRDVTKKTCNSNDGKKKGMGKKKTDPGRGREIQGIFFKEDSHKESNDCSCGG
Chain of MERTK (Q12866 whole entry, looked up, the tested form may be a part): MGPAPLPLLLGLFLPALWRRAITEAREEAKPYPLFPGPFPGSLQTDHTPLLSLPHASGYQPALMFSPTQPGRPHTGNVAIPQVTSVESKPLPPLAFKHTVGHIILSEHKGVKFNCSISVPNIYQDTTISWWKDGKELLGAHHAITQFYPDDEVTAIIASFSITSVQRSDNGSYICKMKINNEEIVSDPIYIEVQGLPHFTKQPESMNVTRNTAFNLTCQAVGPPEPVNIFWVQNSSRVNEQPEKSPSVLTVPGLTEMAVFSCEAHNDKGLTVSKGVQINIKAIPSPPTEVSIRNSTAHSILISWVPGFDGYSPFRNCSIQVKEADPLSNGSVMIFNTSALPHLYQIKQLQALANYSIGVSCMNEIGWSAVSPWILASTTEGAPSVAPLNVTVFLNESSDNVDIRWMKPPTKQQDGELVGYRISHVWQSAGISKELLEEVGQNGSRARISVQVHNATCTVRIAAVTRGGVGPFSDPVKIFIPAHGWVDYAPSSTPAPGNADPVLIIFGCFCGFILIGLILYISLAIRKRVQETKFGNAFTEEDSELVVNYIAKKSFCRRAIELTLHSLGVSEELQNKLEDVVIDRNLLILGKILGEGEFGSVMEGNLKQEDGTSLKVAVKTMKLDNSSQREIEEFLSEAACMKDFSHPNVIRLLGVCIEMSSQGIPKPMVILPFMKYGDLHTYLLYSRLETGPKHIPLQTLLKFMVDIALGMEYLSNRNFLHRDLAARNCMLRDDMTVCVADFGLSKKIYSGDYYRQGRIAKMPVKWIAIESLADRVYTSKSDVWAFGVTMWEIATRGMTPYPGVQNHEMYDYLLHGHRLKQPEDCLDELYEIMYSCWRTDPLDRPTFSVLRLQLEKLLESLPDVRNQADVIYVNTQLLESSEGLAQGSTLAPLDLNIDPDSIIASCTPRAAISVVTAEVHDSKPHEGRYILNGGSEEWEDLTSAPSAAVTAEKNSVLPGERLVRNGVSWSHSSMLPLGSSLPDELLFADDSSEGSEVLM
Chain of Fes (P07332 whole entry, looked up): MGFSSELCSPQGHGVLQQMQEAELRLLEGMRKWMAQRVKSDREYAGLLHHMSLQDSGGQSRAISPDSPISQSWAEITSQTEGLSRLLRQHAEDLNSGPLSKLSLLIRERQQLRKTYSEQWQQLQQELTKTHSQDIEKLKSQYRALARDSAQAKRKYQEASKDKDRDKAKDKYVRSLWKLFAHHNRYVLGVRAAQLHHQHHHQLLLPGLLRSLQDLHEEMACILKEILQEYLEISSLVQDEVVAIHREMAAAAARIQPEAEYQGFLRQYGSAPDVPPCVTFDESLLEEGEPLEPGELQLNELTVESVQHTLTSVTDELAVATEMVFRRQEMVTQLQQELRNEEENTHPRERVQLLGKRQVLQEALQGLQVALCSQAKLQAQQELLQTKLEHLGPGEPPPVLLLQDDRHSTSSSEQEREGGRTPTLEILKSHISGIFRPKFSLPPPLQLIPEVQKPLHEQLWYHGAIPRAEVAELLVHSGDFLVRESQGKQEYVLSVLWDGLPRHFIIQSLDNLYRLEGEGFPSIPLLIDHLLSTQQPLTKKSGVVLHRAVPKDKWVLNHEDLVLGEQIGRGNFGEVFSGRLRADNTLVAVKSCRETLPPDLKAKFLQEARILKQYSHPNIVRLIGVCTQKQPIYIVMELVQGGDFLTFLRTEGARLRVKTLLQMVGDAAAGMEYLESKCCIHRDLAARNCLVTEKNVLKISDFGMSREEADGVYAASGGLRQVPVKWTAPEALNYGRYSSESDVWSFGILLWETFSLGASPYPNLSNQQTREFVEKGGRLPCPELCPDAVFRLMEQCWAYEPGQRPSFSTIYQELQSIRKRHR
Chain of EPHB1 (P54762 whole entry, looked up): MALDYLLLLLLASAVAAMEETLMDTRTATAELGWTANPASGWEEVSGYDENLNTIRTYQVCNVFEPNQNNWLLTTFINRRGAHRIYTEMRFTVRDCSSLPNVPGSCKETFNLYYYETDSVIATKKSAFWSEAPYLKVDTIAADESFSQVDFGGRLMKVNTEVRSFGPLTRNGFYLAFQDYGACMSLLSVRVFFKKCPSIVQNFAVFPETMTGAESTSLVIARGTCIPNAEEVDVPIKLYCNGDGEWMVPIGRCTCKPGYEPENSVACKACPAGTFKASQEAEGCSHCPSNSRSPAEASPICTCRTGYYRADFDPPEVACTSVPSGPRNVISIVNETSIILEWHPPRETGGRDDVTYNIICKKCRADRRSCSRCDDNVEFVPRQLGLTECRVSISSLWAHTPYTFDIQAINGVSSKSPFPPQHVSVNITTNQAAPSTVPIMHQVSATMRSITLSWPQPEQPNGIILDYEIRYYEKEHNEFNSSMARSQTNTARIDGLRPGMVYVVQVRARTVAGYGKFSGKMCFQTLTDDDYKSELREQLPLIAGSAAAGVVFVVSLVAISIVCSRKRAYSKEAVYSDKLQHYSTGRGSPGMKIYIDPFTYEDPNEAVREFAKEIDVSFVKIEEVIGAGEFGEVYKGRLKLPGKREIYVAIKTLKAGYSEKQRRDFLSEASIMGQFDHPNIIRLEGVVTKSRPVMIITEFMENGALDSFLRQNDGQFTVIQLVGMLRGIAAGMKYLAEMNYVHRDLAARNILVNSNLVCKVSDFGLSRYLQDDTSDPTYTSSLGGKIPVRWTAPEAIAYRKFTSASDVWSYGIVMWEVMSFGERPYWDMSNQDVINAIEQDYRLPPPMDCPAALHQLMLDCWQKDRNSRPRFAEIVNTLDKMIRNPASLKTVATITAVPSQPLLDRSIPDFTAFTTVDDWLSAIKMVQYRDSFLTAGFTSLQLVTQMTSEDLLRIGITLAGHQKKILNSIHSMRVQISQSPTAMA

Row | Sequence | SH2 binding enrichment (Grb2 SH2) | SH2 binding enrichment (c-Src SH2) | SH2 binding enrichment (SHP2-C SH2) | phosphorylation enrichment (c-Src) | phosphorylation enrichment (AncSZ) | phosphorylation enrichment (EPHB1) | phosphorylation enrichment (Fes) | phosphorylation enrichment (Fyn) | phosphorylation enrichment (Jak2) | phosphorylation enrichment (Hck) | phosphorylation enrichment (EPHB2) | phosphorylation enrichment (FGFR3) | phosphorylation enrichment (c-Abl (mouse)) | phosphorylation enrichment (Fer (mouse)) | phosphorylation enrichment (FGFR1) | phosphorylation enrichment (MERTK)
1 | QGLRLYRPHLA [BTK_Y617] | 1.4 | 0.988 | 1.04 | 0.438 | 1.16 | 0.515 | 1.12 | 0.461 | 1.15 | 0.437 | 0.697 | 0.76 | 0.775 | 0.542 | 0.501 | 0.382
2 | SVTCTYSPALF [TP53_Y126_N131Y_YF] | 0.795 | 0.422 | 0.685 | 1 | 1.51 | 0.872 | 1.74 | 0.837 | 1.52 | 0.695 | 0.694 | 1.17 | 1.05 | 0.727 | 0.542 | 0.479
3 | FGLPRYRWLTH [TSPAN12_Y143_YF] | 0.584 | 0.609 | 0.657 | 0.448 | 1.01 | 0.526 | 0.858 | 0.552 | 0.687 | 0.526 | 0.692 | 0.468 | 0.616 | 0.446 | 0.529 | 0.585
4 | DESEDYRDTVV [CNNM3_Y456] | 0.901 | 0.439 | 0.587 | 0.662 | 1.46 | 0.975 | 1.59 | 0.623 | 1.4 | 0.765 | 0.931 | 1.13 | 0.897 | 0.78 | 0.677 | 0.633
5 | ISSLRYELLEE [TRPC6_Y896] | 0.832 | 6.86 | 0.754 | 0.397 | 1.24 | 0.63 | 1.17 | 0.511 | 0.832 | 0.597 | 0.573 | 0.764 | 0.621 | 0.544 | 0.52 | 0.533
6 | SYSGEYGGGGG [ZG16_Y30] | 0.784 | 0.495 | 0.635 | 0.385 | 0.604 | 0.398 | 0.685 | 0.485 | 0.4 | 0.525 | 0.452 | 0.552 | 0.433 | 0.444 | 0.53 | 0.439
7 | SISYDYCRVPM [BST2_Y8_T4I] | 1.01 | 0.831 | 0.705 | 1.17 | 3.91 | 11 | 1.17 | 0.965 | 3.05 | 2.62 | 9.95 | 5.46 | 1.03 | 3.87 | 7.84 | 2.98
8 | ISHVAYRVLGK [TRRAP_Y892] | 0.775 | 0.488 | 0.732 | 0.416 | 0.634 | 0.31 | 0.597 | 0.394 | 0.426 | 0.348 | 0.365 | 0.402 | 0.477 | 0.338 | 0.423 | 0.34
9 | FPHVIYARLWR [SMAD4_Y95] | 0.767 | 0.425 | 0.61 | 5.17 | 0.917 | 3.11 | 0.85 | 5.08 | 0.751 | 5.38 | 1.16 | 0.648 | 10.1 | 0.539 | 0.567 | 1.5
10 | EDKFMYFEFPQ [PTEN_Y240] | 0.745 | 0.543 | 0.681 | 2.53 | 1.7 | 0.826 | 1.27 | 1.32 | 2.05 | 1.11 | 0.67 | 7.33 | 0.952 | 0.421 | 9.1 | 1.68
11 | KQLYAYKMLMA [TMC2_Y209] | 1.32 | 0.842 | 1.4 | 0.383 | 0.629 | 0.62 | 0.72 | 0.39 | 0.669 | 0.458 | 0.445 | 0.496 | 0.57 | 0.384 | 0.515 | 0.368
12 | DASAVYLHDFQ [PLCG2_Y242] | 0.933 | 0.542 | 0.634 | 0.447 | 0.746 | 0.528 | 1.31 | 0.533 | 0.792 | 0.622 | 0.561 | 0.543 | 0.573 | 0.474 | 0.477 | 0.477
13 | GGFTCYCDGKK [PROS1_Y266_YF] | 0.779 | 0.409 | 0.591 | 0.354 | 1.12 | 0.608 | 1.19 | 0.485 | 0.998 | 0.484 | 0.515 | 0.865 | 0.758 | 0.511 | 0.457 | 0.419
14 | QGRQTYLPQPA [DDR2_Y813] | 0.627 | 0.553 | 0.44 | 0.477 | 0.752 | 0.527 | 0.821 | 0.495 | 0.778 | 0.713 | 0.473 | 0.485 | 0.844 | 0.408 | 0.552 | 0.433
15 | VVTFSYKPAGN [RBL2_Y544_P547A] | 0.999 | 0.685 | 0.984 | 0.397 | 0.754 | 0.418 | 0.83 | 0.395 | 0.643 | 0.378 | 0.424 | 0.705 | 0.605 | 0.378 | 0.399 | 0.367
16 | EQPNPYMVLDI [ROCK2_Y1197_S1194P] | 0.869 | 0.732 | 0.785 | 3.03 | 1.15 | 0.653 | 1.07 | 2.46 | 1.06 | 1.23 | 0.571 | 1.09 | 0.575 | 2.87 | 1.13 | 2.06
